# Reference: IntAct's records for PubMed 22791719
# B1: Phospholipid-transporting ATPase DRS2 (Saccharomyces cerevisiae), P39524 (parent)
# chain: MNDDRETPPKRKPGEDDTLFDIDFLDDTTSHSGSRSKVTNSHANANYIPPSHVLPEETIDLDADDDNIENDVHENLFMSNNHDDQTSWNANRFDSDAYQPQSLRAVKPPGLFARFGNGLKNAFTFKRKKGPESFEMNHYNAVTNNELDDNYLDSRNKFNIKILFNRYILRKNVGDAEGNGEPRVIHINDSLANSSFGYSDNHISTTKYNFATFLPKFLFQEFSKYANLFFLCTSAIQQVPHVSPTNRYTTIGTLLVVLIVSAMKECIEDIKRANSDKELNNSTAEIFSEAHDDFVEKRWIDIRVGDIIRVKSEEPIPADTIILSSSEPEGLCYIETANLDGETNLKIKQSRVETAKFIDVKTLKNMNGKVVSEQPNSSLYTYEGTMTLNDRQIPLSPDQMILRGATLRNTAWIFGLVIFTGHETKLLRNATATPIKRTAVEKIINRQIIALFTVLIVLILISSIGNVIMSTADAKHLSYLYLEGTNKAGLFFKDFLTFWILFSNLVPISLFVTVELIKYYQAFMIGSDLDLYYEKTDTPTVVRTSSLVEELGQIEYIFSDKTGTLTRNIMEFKSCSIAGHCYIDKIPEDKTATVEDGIEVGYRKFDDLKKKLNDPSDEDSPIINDFLTLLATCHTVIPEFQSDGSIKYQAASPDEGALVQGGADLGYKFIIRKPNSVTVLLEETGEEKEYQLLNICEFNSTRKRMSAIFRFPDGSIKLFCKGADTVILERLDDEANQYVEATMRHLEDYASEGLRTLCLAMRDISEGEYEEWNSIYNEAATTLDNRAEKLDEAANLIEKNLILIGATAIEDKLQDGVPETIHTLQEAGIKIWVLTGDRQETAINIGMSCRLLSEDMNLLIINEETRDDTERNLLEKINALNEHQLSTHDMNTLALVIDGKSLGFALEPELEDYLLTVAKLCKAVICCRVSPLQKALVVKMVKRKSSSLLLAIGDGANDVSMIQAAHVGVGISGMEGMQAARSADIAVGQFKFLKKLLLVHGSWSYQRISVAILYSFYKNTALYMTQFWYVFANAFSGQSIMESWTMSFYNLFFTVWPPFVIGVFDQFVSSRLLERYPQLYKLGQKGQFFSVYIFWGWIINGFFHSAIVFIGTILIYRYGFALNMHGELADHWSWGVTVYTTSVIIVLGKAALVTNQWTKFTLIAIPGSLLFWLIFFPIYASIFPHANISREYYGVVKHTYGSGVFWLTLIVLPIFALVRDFLWKYYKRMYEPETYHVIQEMQKYNISDSRPHVQQFQNAIRKVRQVQRMKKQRGFAFSQAEEGGQEKIVRMYDTTQKRGKYGELQDASANPFNDNNGLGSNDFESAEPFIENPFADGNQNSNRFSSSRDDISFDI
# partner: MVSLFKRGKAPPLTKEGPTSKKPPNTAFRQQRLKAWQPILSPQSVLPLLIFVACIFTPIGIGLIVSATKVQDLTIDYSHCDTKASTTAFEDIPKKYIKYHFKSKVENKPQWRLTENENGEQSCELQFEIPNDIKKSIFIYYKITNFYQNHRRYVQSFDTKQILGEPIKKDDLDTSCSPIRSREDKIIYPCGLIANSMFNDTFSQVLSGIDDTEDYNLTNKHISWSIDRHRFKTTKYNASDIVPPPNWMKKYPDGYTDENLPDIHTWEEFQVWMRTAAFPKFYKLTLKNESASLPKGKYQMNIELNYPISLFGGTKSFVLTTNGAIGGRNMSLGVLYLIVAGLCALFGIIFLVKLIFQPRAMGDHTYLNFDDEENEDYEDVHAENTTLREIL
# B2: Phospholipid-transporting ATPase accessory subunit LEM3 (Saccharomyces cerevisiae), P42838 (parent)
# chain: MVNFDLGQVGEVFRRKDKGAIVSGDNPEEEEDVDASEFEEDEVKPVRTKNRRPKEDAFTQQRLAAINPVLTPRTVLPLYLLIAVVFVIVGGCILAQNSKVDEVTIYYQDCMTNATSSWSDIPSEHWQFVFHKYKTYNTAPQWRFVDDESDDFTKQRGTCQIRFTTPSDMKNNVYLNYVLEKFAANHRRYVLSFSEDQIRGEDASYETVHDATGINCKPLSKNADGKIYYPCGLIANSMFNDTFPLQLTNVGDTSNNYSLTNKGINWESDKKRYKKTKYNYTQIAPPPYWEKMYPDGYNETNIPDIQDWEEFQNWMRPGAFDKITKLIRINKNDTLPAGEYQLDIGLHWPVLEFNGKKGIYLTHGSHLGGRNPFLGIVYLIGGCICAAMALILLTFWLFGGRKIADASSLSWNMK
# Variants of: B1
# Details: with cdc50_yeast CDC50, P25656
row,Variant,effect of a mutation on the interaction
1,G341L,disrupting interaction strength
2,D560N,disrupting interaction strength
3,E342Q,with no effect

# Variants of: B2
# Details: with atc5_yeast DNF1, P32660
# atc5_yeast DNF1, P32660, sequence (P32660 whole entry): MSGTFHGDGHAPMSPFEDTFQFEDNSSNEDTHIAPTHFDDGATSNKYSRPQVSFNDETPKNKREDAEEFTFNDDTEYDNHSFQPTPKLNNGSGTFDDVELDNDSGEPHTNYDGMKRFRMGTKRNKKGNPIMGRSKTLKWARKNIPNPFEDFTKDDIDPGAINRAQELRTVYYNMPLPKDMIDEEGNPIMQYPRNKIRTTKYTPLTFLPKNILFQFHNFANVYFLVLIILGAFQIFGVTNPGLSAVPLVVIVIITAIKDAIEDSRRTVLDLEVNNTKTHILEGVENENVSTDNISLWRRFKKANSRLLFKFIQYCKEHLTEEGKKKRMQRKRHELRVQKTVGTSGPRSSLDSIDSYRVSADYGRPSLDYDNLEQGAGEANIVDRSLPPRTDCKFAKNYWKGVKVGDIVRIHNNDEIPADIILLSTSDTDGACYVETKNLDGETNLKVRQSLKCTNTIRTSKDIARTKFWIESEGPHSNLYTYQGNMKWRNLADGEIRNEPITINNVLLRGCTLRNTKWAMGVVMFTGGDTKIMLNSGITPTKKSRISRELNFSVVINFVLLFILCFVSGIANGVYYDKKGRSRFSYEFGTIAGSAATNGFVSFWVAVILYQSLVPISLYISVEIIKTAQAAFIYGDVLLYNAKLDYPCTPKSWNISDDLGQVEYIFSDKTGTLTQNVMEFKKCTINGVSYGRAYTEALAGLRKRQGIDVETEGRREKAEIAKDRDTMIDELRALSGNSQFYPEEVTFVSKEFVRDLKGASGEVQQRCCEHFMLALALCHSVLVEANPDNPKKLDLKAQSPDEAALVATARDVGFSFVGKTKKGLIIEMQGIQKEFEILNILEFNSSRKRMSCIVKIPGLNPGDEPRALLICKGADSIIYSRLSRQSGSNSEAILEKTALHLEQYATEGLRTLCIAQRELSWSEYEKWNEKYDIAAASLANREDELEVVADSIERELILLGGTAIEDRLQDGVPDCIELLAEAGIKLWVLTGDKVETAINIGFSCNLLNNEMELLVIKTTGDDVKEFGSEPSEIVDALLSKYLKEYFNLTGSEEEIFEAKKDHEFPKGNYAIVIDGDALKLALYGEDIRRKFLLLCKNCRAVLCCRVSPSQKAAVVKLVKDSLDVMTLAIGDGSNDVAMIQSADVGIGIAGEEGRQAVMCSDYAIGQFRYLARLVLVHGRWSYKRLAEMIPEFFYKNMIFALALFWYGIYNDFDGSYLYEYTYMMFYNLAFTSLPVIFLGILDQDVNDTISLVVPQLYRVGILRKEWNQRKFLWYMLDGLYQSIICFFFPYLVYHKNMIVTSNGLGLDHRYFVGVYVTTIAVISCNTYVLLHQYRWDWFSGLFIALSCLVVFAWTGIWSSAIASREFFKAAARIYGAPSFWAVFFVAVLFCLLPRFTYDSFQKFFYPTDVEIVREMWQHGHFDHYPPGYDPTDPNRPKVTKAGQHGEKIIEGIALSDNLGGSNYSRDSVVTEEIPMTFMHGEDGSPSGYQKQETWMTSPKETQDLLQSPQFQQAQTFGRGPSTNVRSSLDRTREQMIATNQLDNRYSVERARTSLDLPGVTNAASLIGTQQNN
row,Variant,effect of a mutation on the interaction
1,MVNFDLGQVGEVFRRKDKGAIVSGDNPEEEEDVDASEFEEDEVKPVRTKNRRPKEDAFTQQRLAAINPVLTPRTVLPLYLLIAVVFVIVGGCILAQNSKVDEVTIYYQDCMTNATSSWSDIPSEHWQFVFHKYKTYNTAPQWRFVDDESDDFTKQRGTCQIRFTTPSDMKNNVYLNYVLEKFAANHRRYVLSFSEDQIRGEDASYETVHDATGINCKPLSKNADGKIYYPCGLIANSMFNDTFPLQLTNVGDTSNNYSLTNKGINWESDKKRYKKTKYNYTQIAPPPYWEKMYPDGYNETNIPDIQDWEEFQNWMRPGAFDKITKLIRINKNDTLPAGEYQLDIGLHWPVLEFNGKKGIYLTHGSHLGGRNPFLEIVYLIGGCICAAMALILLTFWLFGGRKIADASSLSWNMK [G375E],disrupting interaction strength
2,MVNFDLGQVGEVFRRKDKGAIVSGDNPEEEEDVDASEFEEDEVKPVRTKNRRPKEDAFTQQRLAAINPVLTPRTVLPLYLLITVVFVIVGGCILAQNSKVDEVTIYYQDCMTNATSSWSDIPSEHWQFVFHKYKTYNTAPQWRFVDDESDDFTKQRGTCQIRFTTPSDMKNNVYLNYVLEKFAANHRRYVLSFSEDQIRGEDASYETVHDATGINCKPLSKNADGKIYYPCGLIANSMFNDTFPLQLTNVGDTSNNYSLTNKGINWESDKKRYKKTKYNYTQIAPPPYWEKMYPDGYNETNIPDIQDWEEFQNWMRPGAFDKITKLIRINKNDTLPAGEYQLDIGLHWPVLEFNGKKGIYLTHGSHLGGRNPFLGIVYLIGGCICAAMALILLTFWLFGGRKIADASSLSWNMK [A83T],disrupting interaction strength
3,MVNFDLGQVGEVFRRKDKGAIVSGDNPEEEEDVDASEFEEDEVKPVRTKNRRPKEDAFTQQRLAAINPVLTPRTVLPLYLLIAVVFVIVGGCILAQNSKVDEVTIYYQDAMTNATSSWSDIPSEHWQFVFHKYKTYNTAPQWRFVDDESDDFTKQRGTCQIRFTTPSDMKNNVYLNYVLEKFAANHRRYVLSFSEDQIRGEDASYETVHDATGINCKPLSKNADGKIYYPCGLIANSMFNDTFPLQLTNVGDTSNNYSLTNKGINWESDKKRYKKTKYNYTQIAPPPYWEKMYPDGYNETNIPDIQDWEEFQNWMRPGAFDKITKLIRINKNDTLPAGEYQLDIGLHWPVLEFNGKKGIYLTHGSHLGGRNPFLGIVYLIGGCICAAMALILLTFWLFGGRKIADASSLSWNMK [C110A],disrupting interaction strength
4,MVNFDLGQVGEVFRRKDKGAIVSGDNPEEEEDVDASEFEEDEVKPVRTKNRRPKEDAFTQQRLAAINPVLTPRTVLPLYLLIAVVFVIVGGCILAQNSKVDEVTIYYQDCMTNATSSWSDIPSEHWQFVFHKYKTYNTAPQWRFVDDESDDFTKQRGTCQIRFTTPSDMKNNVYLNYVLEKFAANHRRYVLSFSEDQIRGEDASYETVHDATGINAKPLSKNADGKIYYPCGLIANSMFNDTFPLQLTNVGDTSNNYSLTNKGINWESDKKRYKKTKYNYTQIAPPPYWEKMYPDGYNETNIPDIQDWEEFQNWMRPGAFDKITKLIRINKNDTLPAGEYQLDIGLHWPVLEFNGKKGIYLTHGSHLGGRNPFLGIVYLIGGCICAAMALILLTFWLFGGRKIADASSLSWNMK [C216A],disrupting interaction strength

# Variants of: B2
# Details: with atc5_yeast DNF1, P32660
# Remark: another data set of the same source
row,Variant,effect of a mutation on the interaction
1,MVNFDLGQVGEVFRRKDKGAIVSGDNPEEEEDVDASEFEEDEVKPVRTKNRRPKEDAFTQQRLAVINPVLTPRTVLPLYLLIAVVFVIVGGCILAQNSKVDEVTIYYQDCMTNATSSWSDIPSEHWQFVFHKYKTYNTAPQWRFVDDESDDFTKQRGTCQIRFTTPSDMKNNVYLNYVLEKFAANHRRYVLSFSEDQIRGEDASYETVHDATGINCKPLSKNADGKIYYPCGLIANSMFNDTFPLQLTNVGDTSNNYSLTNKGINWESDKKRYKKTKYNYTQIAPPPYWEKMYPDGYNETNIPDIQDWEEFQNWMRPGAFDKITKLIRINKNDTLPAGEYQLDIGLHWPVLEFNGKKGIYLTHGSHLGGRNPFLGIVYLIGGCICAAMALILLTFWLFGGRKIADASSLSWNMK [A65V],decreasing interaction strength
